Patent US20050084890A1, “High-throughput screening assay for inhibitors of replication protein A” (priority 2003, published 2005)

What was measured:
[1] = target: T1, RPA (Homo sapiens, UniProt P27694); assay: Homogeneous high-throughput fluorescence assay of RPA's DNA binding activity (96-well); details: blind experiment; 5, 25 or 50 pmol competitor in 3 of 96 wells
T1 construct: made in house; host or cells: Escherichia coli
Description: Specifically, the percentage inhibition is calculated by taking the difference between the fluorescence values of reactions containing DNA and RPA and reactions containing DNA, RPA, and the test compound and dividing by the difference between the fluorescence values of reactions with DNA and RPA and the fluorescence of the DNA alone. This value is then multiplied by 100 to give percentage inhibition. The measurement is typically reported as fluorescence above the background fluorescence of the reporter alone. In one aspect the of the assay the DNA is single stranded DNA.
In accordance with one exemplary embodiment of the present invention, a homogeneous high-throughput screening assay is provided that employs a novel fluorescent reporter for measuring RPA's DNA binding activity. […] The fluorescence is then quantified in a 96-well plate fluorescence spectrophotometer. […]
RPA (10 pmol) was added to each well of a 96-well plate in a volume of 100 μl. […] Plates were read in a fluorometer. Fluorescence emission was read at 518 nm following excitation at […]. Fluorescence was read using a 96-well plate reader with a 2.5 nm excitation slit width and a 5 nm emission slit width. […] The data is presented as fluorescence above the background fluorescence of the reporter alone unless indicated otherwise. […]

[2] = target: T2, Replication Protein A (RPA) (Homo sapiens, UniProt P27694;P15927;P35244 P27694:1-616,P15927:1-270,P35244:1-121); assay: competition; 5, 25 or 50 pmol unlabeled DNA inhibits RPA binding to the fluorescein-labeled reporter; details: tags: expressed in E. coli from vector pdT11 (Marc Wold)
T2 sequence (P27694 whole entry, chain 1 of 3): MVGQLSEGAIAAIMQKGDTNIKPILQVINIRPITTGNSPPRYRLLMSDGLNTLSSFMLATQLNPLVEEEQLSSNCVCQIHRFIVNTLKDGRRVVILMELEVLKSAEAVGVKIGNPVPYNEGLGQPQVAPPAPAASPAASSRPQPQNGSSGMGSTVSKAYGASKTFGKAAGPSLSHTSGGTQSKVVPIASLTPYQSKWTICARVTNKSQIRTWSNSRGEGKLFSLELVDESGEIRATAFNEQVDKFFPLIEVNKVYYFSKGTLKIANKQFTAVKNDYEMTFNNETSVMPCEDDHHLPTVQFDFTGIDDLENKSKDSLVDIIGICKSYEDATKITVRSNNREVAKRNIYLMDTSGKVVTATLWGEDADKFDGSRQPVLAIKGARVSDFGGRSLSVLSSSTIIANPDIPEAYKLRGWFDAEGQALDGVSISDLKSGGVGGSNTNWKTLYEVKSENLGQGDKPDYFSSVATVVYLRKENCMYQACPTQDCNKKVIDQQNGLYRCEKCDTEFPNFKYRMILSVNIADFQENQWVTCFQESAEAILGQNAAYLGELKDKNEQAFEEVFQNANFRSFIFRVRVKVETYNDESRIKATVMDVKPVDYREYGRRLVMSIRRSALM
T2 sequence (P15927 whole entry, chain 2 of 3): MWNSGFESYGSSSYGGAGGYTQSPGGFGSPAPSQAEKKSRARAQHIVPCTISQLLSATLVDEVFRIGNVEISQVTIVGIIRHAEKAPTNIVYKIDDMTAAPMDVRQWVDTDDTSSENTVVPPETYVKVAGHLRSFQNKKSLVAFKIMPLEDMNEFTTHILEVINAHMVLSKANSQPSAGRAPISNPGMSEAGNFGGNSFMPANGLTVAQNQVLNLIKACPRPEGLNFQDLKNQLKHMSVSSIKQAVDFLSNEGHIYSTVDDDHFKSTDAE
T2 sequence (P35244 whole entry, chain 3 of 3): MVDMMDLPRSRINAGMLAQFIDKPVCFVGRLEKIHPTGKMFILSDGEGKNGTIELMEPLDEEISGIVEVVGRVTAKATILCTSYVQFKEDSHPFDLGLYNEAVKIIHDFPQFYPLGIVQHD
Description: RPA (10 pmol) was added to each well of a 96-well plate in a volume of 100 μl. Individual compounds were added to each well followed by the fluorescent reporter. The final reaction volume was 200 μl. Plates were read in a fluorometer. Fluorescence emission was read at 518 nm following excitation at […]. Fluorescence was read using a 96-well plate reader with a 2.5 nm excitation slit width and a 5 nm emission slit width. To calculate the percentage inhibition, the difference between the fluorescence values of reactions containing DNA and RPA and […] the test compound was divided by the difference between the fluorescence values of reactions with DNA and RPA and the fluorescence of the DNA alone. This value was then multiplied by 100 to give percentage inhibition. The data is presented as fluorescence above the background fluorescence of the reporter alone unless indicated otherwise.
To determine the effectiveness of this assay, a blind experiment was performed in which 3 of the 96 wells were added to 5, 25, or 50 pmol DNA substrate that has the exact sequence of the fluorescent DNA reporter without the fluorescein label. This DNA would compete for RPA, therefore acting as an inhibitor. […] The effect of DMSO on reaction sensitivity and reproducibility was assessed and the results indicated no difference in assay sensitivity.

[3] = target: T2, Replication Protein A (RPA); assay: FP; polarization r max 0.23 without compound; saturation at about 15 pmol RPA in control as printed; details: tags: expressed in E. coli from vector pdT11 (Marc Wold); label: fluorescein
Description: To more precisely determine if the method of inhibition was via an interaction with DNA or RPA, fluorescence polarization experiments were conducted. Fluorescence polarization is a measure of the rate at which an object tumbles or rotates in three-dimensional space. In this experiment, a fluorescein-labeled dT₃₀ substrate DNA is employed which results in a baseline polarization that is increased upon RPA binding; to the DNA and slowing its rotation. Using this method, it can be determined if the interaction of the compound was with DNA or RPA by constructing binding isotherms varying RPA at a fixed concentration of DNA with and without the addition of specific compounds. Using fluorescence polarization, compounds that exert their inhibitory effect through an interaction with the DNA were capable of being identified. Fluorescence polarization was performed by titrating RPA into a reaction containing fluorescein-labeled dT₃₀ DNA in the presence and absence of 20 μM compound (FIG. 5). […] This conclusion is further supported by experiments performed measuring the effect of compound 1:51 on polarization of the DNA in the absence of RPA. In these reactions, the r value of the DNA plus compound was slightly greater than the r value of the DNA without compound.

[4] = target: T2, Replication Protein A (RPA); assay: fluorescence enhancement (ex 498 nm, em 518 nm); hyperbolic curve saturating at 1:1 RPA:DNA; details: tags: expressed in E. coli from vector pdT11 (Marc Wold); label: 5' fluorescein
Description: In an effort to investigate the effect small molecules have on the interaction of RPA with DNA, an HTS assay was developed that relies on the use of a fluorescein-labeled ssDNA substrate. […] In an effort to optimize the detection, fluorescent excitation and emission wavelengths were tested along with varying slit widths and voltages. The optimal parameters were excitation at 498 nm and emission at […]. The optimal excitation and emission slit widths and voltage were 2.5 and 5 nm and 800 V, respectively.
In an attempt to test a large number of compounds simultaneously, the assay was converted to a 96-well plate format. In this assay, the fluorescein-labeled DNA was diluted into assay buffer and 100 μl were dispensed into each well. The fluorescence of each well was then read. Each well then received 100 μl RPA and the fluorescence of each well was read again. Percentage increase of fluorescence was then calculated from these two readings and is represented in FIG. 1.

T1 sequence (P27694 whole entry): as the sequence (P27694 whole entry, chain 1 of 3) above
T1 sequence (P15927 whole entry partner): as the sequence (P15927 whole entry, chain 2 of 3) above
T1 sequence (P35244 whole entry partner): as the sequence (P35244 whole entry, chain 3 of 3) above

**Q.** With “DNA substrate that has the exact sequence of the fluorescent DNA reporter without the fluorescein label: unlabeled 30 base ssDNA of SEQ ID NO: 1 sequence, competes for RPA, acting as an inhibitor (DNA GGGGAAGTAAGGACGCGGAAAGGATAGGGG; DNA, backbone not given here; unlabeled competitor ssDNA)” as the molecule, how does the “inhibition of RPA binding to the fluorescein-labeled DNA” value [1] read?
**A.** significant inhibition

**Q.** Does GGGGAAGTAAGGACGCGGAAAGGATAGGGG (ssDNA) [30-base unlabeled competitor DNA] bind [2]?
**A.** binds

**Q.** Does TTTTTTTTTTTTTTTTTTTTTTTTTTTTTT (ssDNA, [NONE]) [dT30] bind [3]?
**A.** binds

**Q.** Does GGGGAAGTAAGGACGCGGAAAGGATAGGGG (ssDNA) [30-base purine-rich reporter DNA] bind [4]?
**A.** binds
